In article PMC11135836:

Tested on: T1, RstA (Escherichia coli LF82 (adherent-invasive)?), ORF:9fe818c8
T1 sequence: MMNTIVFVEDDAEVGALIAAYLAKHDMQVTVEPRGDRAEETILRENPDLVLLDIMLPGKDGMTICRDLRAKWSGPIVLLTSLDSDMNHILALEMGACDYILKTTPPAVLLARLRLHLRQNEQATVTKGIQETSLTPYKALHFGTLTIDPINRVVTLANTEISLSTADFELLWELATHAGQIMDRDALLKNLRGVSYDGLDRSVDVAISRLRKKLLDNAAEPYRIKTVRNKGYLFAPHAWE
Test: EMSA
Settings: EMSA: 40 ng PCR fragment, 0-2 uM RstA, 20 uL; 1 mM Tris-HCl pH 7.5, 0.2 mM DTT, 5 mM MgCl2, 10 mM KCl, 10% glycerol, 30 mM acetyl phosphate; 25 C 30 min …

“ATGACGAAAGGACTACAGCGAAATATTTTTTATATGCATTATTAGTAAGTTAGCACCATTTGTATGATTTTTTAAAATTGTGCAATAAAAACCAAATGTACAACTTTTCTATCATTTATAAACTTAATAAAACCTTAAGGTTAACATTTTAATATAACGAGTTGCATTTAGTTACATGTTTAACACTTGATTTAAGATTTGTAATGGCTAGATTGAAATCAGATGTAATCCATTAGTTTTATATTTTACCCATTTAGGGCTGATTTATTACTACACACA (double strand) [csgD promoter]” was tested, and the binding was “binds”.

For “CAAGCAAAAGCCTGGTTCCGCCGATTTATCGCTGCGGCAAATAACGCAGCGGGTTTACGGATTTCCCCTTGTAACGAATTTCAAAATGCAAGCGTGTTGAACTGGTTCCGGTGCTACCCATGGTTGCTATTTTTTGCCCCGCCTTCACTTCTTGTTGTTCCCGGACCAGCATTGTGTCGTTATGGGCGTAGG (double strand) [rpoS promoter (negative control)]”, the binding was “no binding”.

For “TGCGCAGTTATTCTACCGCTTTGTAAGTAGTAAAATAGTTAACACGATCAAGACTACTATTATTGGTAGCTAAATTTTCCTTAAGTCACAATACGTTATTATCAATGCTGTAATTTATTCAGCGTTTGTACATATCGTTACACGCTGAAACCAACCACTCACGGAAGTCTGCCATTCC (double strand) [asr promoter]”, the binding was “binds”.
